Substrate in the series: O=CCO
Kind of series: O2 consumption. In kind it is biochemical, Escherichia coli. To be noted: thiamin diphosphate (ThDP), Mg2+ active site; donor (and acceptor) substrate.

The text below walks through data of PMC8015787.

B1: 1-deoxy-D-xylulose 5-phosphate synthase (DXPS) (Escherichia coli K-12) (protein)
chain: SFDIAKYPTLALVDSTQELRLLPKESLPKLCDELRRYLLDSVSRSSGHFASGLGTVELTVALHYVYNTPFDQLIWDVGHQAYPHKILTGRRDKIGTIRQKGGLHPFPWRGESEYDVLSVGHSSTSISAGIGIAVAAEKEGKNRRTVCVIGDGAITAGMAFEAMNHAGDIRPDMLVILNDNEMSISENVGALNNHLAQLLSGKLYSSLREGGKKVFSGVPPIKELLKRTEEHIKGMVVPGTLFEELGFNYIGPVDGHDVLGLITTLKNMRDLKGPQFLHIMTKKGRGYEPAEKDPITFHAVPKFDPSSGCLPKSSGGLPSYSKIFGDWLCETAAKDNKLMAITPAMREGSGMVEFSRKFPDRYFDVAIAEQHAVTFAAGLAIGGYKPIVAIYSTFLQRAYDQVLHDVAIQKLPVLFAIDRAGIVGADGQTHQGAFDLSYLRCIPEMVIMTPSDENECRQMLYTGYHYNDGPSAVRYPRGNAVGVELTPLEKLPIGKGIVKRRGEKLAILNFGTLMPEAAKVAESLNATLVDMRFVKPLDEALILEMAASHEALVTVEENAIMGGAGSGVNEVLMAHRKPVPVLNIGLPDFFIPQGTQEEMRAELGLDAAGMEAKIKAWLA
Consider B1, for which the Km (commonly the concentration of substrate that gives half-maximal velocity) was determined as 920 ± 120 µM.
